This note sets out measurements from paper PMC8567202, “Phosphoinositide-binding activity of Smad2 is essential for its function in TGF-β signaling” (The Journal of Biological Chemistry, 2021).

The nature of assay [1]: SPR membrane binding to POPC/POPS vesicles. The conditions noted are these: for binding to POPC/POPS (80:20): RU/RUmax, 100 nM protein. An excerpt:
It has been generally thought that Smad2 and Smad3 are targeted to the activated TGF-β signaling complex by direct interaction with TβRI ([1], [2]) or via SARA ([7]). However, it has been shown that many cytosolic proteins that are targeted to membrane proteins or membrane-anchored signaling complexes have affinity for membrane lipids ([14]), phosphoinositides (PtdInsPs) in particular, and that their membrane recruitment is mediated by coincident lipid–protein and protein–protein interactions ([15], [16]). For most of these proteins, their PtdInsP specificity directs their membrane targeting behaviors: e.g., PI(4,5)P2-specific proteins are recruited to PM where the highest concentration of PI(4,5)P2 is found, whereas PI(3)P-specific proteins are targeted to PI(3)P-rich EEs ([17], [18]). To resolve uncertainty about the functional location of the activated TGF-β signaling complex, we thus explored the possibility that lipid-binding activity of Smad2 may play a role in specific targeting of Smad2 to the active TGF-β receptor complex either at the PM or at EEs. Lipid-binding activity of Smad proteins has not been reported to date. We thus measured the binding of bacterially expressed Smad2 to large unilamellar vesicles (LUVs) containing various lipids by surface plasmon resonance (SPR) analysis ([19], [20]). Lipid selectivity determined by SPR analysis is typically reported as the relative resonance unit (RU) values for different lipids at a given protein concentration ([21], [22]). Although simple and intuitive, this type of analysis can sometimes yield misleading and erroneous results because some proteins show widely different RU values when bound to different lipid surfaces. Thus, a more reliable parameter that represents the fraction of the membrane bound protein molecules at a given protein concentration would be a normalized value of RU/RUmax where RUmax indicates the maximal RU value when a given lipid surface is saturated with the protein molecules. We thus estimated RUmax for different lipid species by employing the highest protein concentration experimentally feasible (e.g., 1 μM) and determined RU/RUmax for different lipids at the protein concentration that allows robust comparison (e.g., 100 nM). Once the lipid selectivity has been determined by this semiquantitative approach, we then rigorously determined and compared Kd values for selected lipids for more accurate quantitative determination of lipid selectivity.
Figure 1 Membrane-binding properties of Smad2 FL protein and MH2 domain determined by SPR analysis.A, PtdInsP selectivity of Smad2-FL determined using POPC/POPS/PtdInsP (77:20:3 in mole ratio) LUVs coated on the L1 sensor chip. The protein concentration was 100 nM. PIP3 indicates PI(3,4,5)P3. B, determination of Kd for binding of Smad2 FL to different LUVs. The protein concentration was varied from 0 to 500 nM. C, PI(4,5)P2 concentration dependence of membrane binding of Smad2-FL determined using POPC/POPS/PI(4,5)P2 (77-x:20:x, x = 0–5 mol%) LUVs. The protein concentration was 100 nM. D, PtdInsP selectivity of the Smad2 MH2 domain determined using POPC/POPS/PtdInsP (77:20:3 in mole ratio) LUVs. The protein concentration was 100 nM. Normalized RU values (RU/RUmax) were used for all figures but (C) for more accurate determination of PtdInsP selectivity. RUmax values determined for different vesicles at 1 μM Smad2 were: 280 ± 20 for POPC/POPS/PI(4,5)P2 (77:20:3), 370 ± 10 for POPC/POPS/PI(3,4)P2 (77:20:3), 400 ± 15 for POPC/POPS/PI(3,4,5)P3 (or PIP3) (77:20:3), 400 ± 20 for POPC/POPS/PI(3)P (77:20:3), and 380 ± 20 for POPC/POPS (80:20). Only the association phases of the sensorgrams are shown and used for further analysis. Each set of sensorgrams shown in A and D are representatives of >5 independent measurements. Data points shown in B and C are the average ±S.D. values from triplicate measurements. […]

The next assay is described as follows: SPR PtdInsP selectivity. In kind it is binding. The conditions noted are these: RU/RUmax, 100 nM protein. An excerpt: (§1) It has been generally thought that Smad2 and Smad3 are targeted to the activated TGF-β signaling complex by direct interaction with TβRI ([1], [2]) or via SARA ([7]). However, it has been shown that many cytosolic proteins that are targeted to membrane proteins or membrane-anchored signaling complexes have affinity for membrane lipids ([14]), phosphoinositides (PtdInsPs) in particular, and that their membrane recruitment is mediated by coincident lipid–protein and protein–protein interactions ([15], [16]). […] We thus measured the binding of bacterially expressed Smad2 to large unilamellar vesicles (LUVs) containing various lipids by surface plasmon resonance (SPR) analysis ([19], [20]). Lipid selectivity determined by SPR analysis is typically reported as the relative resonance unit (RU) values for different lipids at a given protein concentration ([21], [22]). […] We thus estimated RUmax for different lipid species by employing the highest protein concentration experimentally feasible (e.g., 1 μM) and determined RU/RUmax for different lipids at the protein concentration that allows robust comparison (e.g., 100 nM). Once the lipid selectivity has been determined by this semiquantitative approach, we then rigorously determined and compared Kd values for selected lipids for more accurate quantitative determination of lipid selectivity. […]

Assay [2] in a line: SPR membrane binding to POPC/POPS/PI(3)P vesicles. The conditions noted are these: POPC/POPS/PI(3)P (77:20:3).
From the text: as §1

B1: Smad2-W422A: W422A mutant of full-length Smad2; specific PI(4,5)P2 binding-compromised (protein)
chain: MSSILPFTPPVVKRLLGWKKSAGGSGGAGGGEQNGQEEKWCEKAVKSLVKKLKKTGRLDELEKAITTQNCNTKCVTIPSTCSEIWGLSTANTVDQWDTTGLYSFSEQTRSLDGRLQVSHRKGLPHVIYCRLWRWPDLHSHHELKAIENCEYAFNLKKDEVCVNPYHYQRVETPVLPPVLVPRHTEILTELPPLDDYTHSIPENTNFPAGIEPQSNYIPETPPPGYISEDGETSDQQLNQSMDTGSPAELSPTTLSPVNHSLDLQPVTYSEPAFWCSIAYYELNQRVGETFHASQPSLTVDGFTDPSNSERFCLGLLSNVNRNATVEMTRRHIGRGVRLYYIGGEVFAECLSDSAIFVQSPNCNQRYGWHPATVCKIPPGCNLKIFNNQEFAALLAQSVNQGFEAVYQLTRMCTIRMSFVKGAGAEYRRQTVTSTPCWIELHLNGPLQWLDKVLTQMGSPSVRCSSMS
modifications: left off: His6, N-terminal, state not stated
For B1, the “binding to POPC/POPS (80:20)” value in assay [1] (SPR) was “much less effects on binding”.

B2: Smad2 WT: bacterially expressed full-length Smad2 wild-type (protein)
chain: MSSILPFTPPVVKRLLGWKKSAGGSGGAGGGEQNGQEEKWCEKAVKSLVKKLKKTGRLDELEKAITTQNCNTKCVTIPSTCSEIWGLSTANTVDQWDTTGLYSFSEQTRSLDGRLQVSHRKGLPHVIYCRLWRWPDLHSHHELKAIENCEYAFNLKKDEVCVNPYHYQRVETPVLPPVLVPRHTEILTELPPLDDYTHSIPENTNFPAGIEPQSNYIPETPPPGYISEDGETSDQQLNQSMDTGSPAELSPTTLSPVNHSLDLQPVTYSEPAFWCSIAYYELNQRVGETFHASQPSLTVDGFTDPSNSERFCLGLLSNVNRNATVEMTRRHIGRGVRLYYIGGEVFAECLSDSAIFVQSPNCNQRYGWHPATVCKIPPGCNLKIFNNQEFAALLAQSVNQGFEAVYQLTRMCTIRMSFVKGWGAEYRRQTVTSTPCWIELHLNGPLQWLDKVLTQMGSPSVRCSSMS
modifications: left off: His6, N-terminal, state not stated
notes: bacterially expressed full-length Smad2 wild-type
In the case of B2, in “SPR PtdInsP selectivity”, the PtdInsP selectivity result is “significant degree of selectivity for POPC/POPS/PI(4,5)P2 (77:20:3) over other PtdInsP-containing vesicles”. The RUmax in assay [2] (1 μM Smad2) is reported as 400 ± 20; in assay [1] (POPC/POPS (80:20), 1 μM Smad2), 380 ± 20. For the same molecule, the Kd in assay [2] (SPR, L1 chip, 23 °C, 20 mM Tris, pH 7.4, 0.16 M NaCl, average ±S.D., n = 3, read-out: Kd for lipid binding, PC/PS/PI(3)P) turned out to be 210 ± 34 nM; in assay [1] (SPR, L1 chip, 23 °C, 20 mM Tris, pH 7.4, 0.16 M NaCl, POPC/POPS (80:20), average ±S.D., n = 3, read-out: Kd for lipid binding, PC/PS) it was 560 ± 150 nM.

B3: Smad2-Y426A: Y426A mutant of full-length Smad2; specific PI(4,5)P2 binding-compromised (protein)
chain: MSSILPFTPPVVKRLLGWKKSAGGSGGAGGGEQNGQEEKWCEKAVKSLVKKLKKTGRLDELEKAITTQNCNTKCVTIPSTCSEIWGLSTANTVDQWDTTGLYSFSEQTRSLDGRLQVSHRKGLPHVIYCRLWRWPDLHSHHELKAIENCEYAFNLKKDEVCVNPYHYQRVETPVLPPVLVPRHTEILTELPPLDDYTHSIPENTNFPAGIEPQSNYIPETPPPGYISEDGETSDQQLNQSMDTGSPAELSPTTLSPVNHSLDLQPVTYSEPAFWCSIAYYELNQRVGETFHASQPSLTVDGFTDPSNSERFCLGLLSNVNRNATVEMTRRHIGRGVRLYYIGGEVFAECLSDSAIFVQSPNCNQRYGWHPATVCKIPPGCNLKIFNNQEFAALLAQSVNQGFEAVYQLTRMCTIRMSFVKGWGAEARRQTVTSTPCWIELHLNGPLQWLDKVLTQMGSPSVRCSSMS
modifications: left off: His6, N-terminal, state not stated
Regarding B3, in assay [1] (SPR), the “binding to POPC/POPS (80:20)” value is “much less effects on binding”.

B4: Smad2- R427A/R428A: double mutant of full-length Smad2; PI(4,5)P2 and TβRI binding-compromised (protein)
chain: MSSILPFTPPVVKRLLGWKKSAGGSGGAGGGEQNGQEEKWCEKAVKSLVKKLKKTGRLDELEKAITTQNCNTKCVTIPSTCSEIWGLSTANTVDQWDTTGLYSFSEQTRSLDGRLQVSHRKGLPHVIYCRLWRWPDLHSHHELKAIENCEYAFNLKKDEVCVNPYHYQRVETPVLPPVLVPRHTEILTELPPLDDYTHSIPENTNFPAGIEPQSNYIPETPPPGYISEDGETSDQQLNQSMDTGSPAELSPTTLSPVNHSLDLQPVTYSEPAFWCSIAYYELNQRVGETFHASQPSLTVDGFTDPSNSERFCLGLLSNVNRNATVEMTRRHIGRGVRLYYIGGEVFAECLSDSAIFVQSPNCNQRYGWHPATVCKIPPGCNLKIFNNQEFAALLAQSVNQGFEAVYQLTRMCTIRMSFVKGWGAEYAAQTVTSTPCWIELHLNGPLQWLDKVLTQMGSPSVRCSSMS
modifications: left off: His6, N-terminal, state not stated
Take B4: the “binding to POPC/POPS (80:20)” value in assay [1] (SPR) was “much less effects on binding”.

B5: Smad2-K420A: K420A mutant of full-length Smad2; predominantly TβRI binding-compromised (protein)
chain: MSSILPFTPPVVKRLLGWKKSAGGSGGAGGGEQNGQEEKWCEKAVKSLVKKLKKTGRLDELEKAITTQNCNTKCVTIPSTCSEIWGLSTANTVDQWDTTGLYSFSEQTRSLDGRLQVSHRKGLPHVIYCRLWRWPDLHSHHELKAIENCEYAFNLKKDEVCVNPYHYQRVETPVLPPVLVPRHTEILTELPPLDDYTHSIPENTNFPAGIEPQSNYIPETPPPGYISEDGETSDQQLNQSMDTGSPAELSPTTLSPVNHSLDLQPVTYSEPAFWCSIAYYELNQRVGETFHASQPSLTVDGFTDPSNSERFCLGLLSNVNRNATVEMTRRHIGRGVRLYYIGGEVFAECLSDSAIFVQSPNCNQRYGWHPATVCKIPPGCNLKIFNNQEFAALLAQSVNQGFEAVYQLTRMCTIRMSFVAGWGAEYRRQTVTSTPCWIELHLNGPLQWLDKVLTQMGSPSVRCSSMS
modifications: left off: His6, N-terminal, state not stated
B5: the “binding to POPC/POPS (80:20)” value in assay [1] (SPR) was “modestly and similarly reduced binding to both vesicles”.
